Assay: soluble fraction after stress (log2 fold change); higher = more stays soluble; pooled small domains, quantitative proteomics
Conditions: stress: 75 degC
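Also: 20 min heating vs room temperature control held 20 min.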

Sequence	soluble fraction (log2)
HMVLQHHTATKALSYHTSASASAAVKGSFARGDSVQVVQGGSQTADGAKWHKVKVGSSYYYAAAEHLTP	≥ 1.04
HMVLTYYSVLGVKTDATTEEIKSTYKQLAIRNHPDRGGSEEVMKMINLAAEILSDPKSRKEYDLSLDA	-2.06
HMVLVLPGEMIHVQVIDEGKEMGQGVGYLDDGTMVVVENGLRHIGRAIDVQVTKVLQTNAGRMIFGQPIL	-1.71
HMVMAELRISVDRLQIGNYIKLPLSWRDHPFLLSSFMIKKEEQIQLIRQLRLKHVFIIPEKSDAPPKPA	-4.2
HMVMNYKKIGKKIADRRILLGITQEELAEKVDSSANYISNIETGIKSGSLIFYIKVANELKLSLDFLFSDE	-3.09
HMVMPTGRVRYYDAEKGFGFLSKDSGGDDVYVRSSALPAGVTSLKRGQKVEFGIIDGKRGEQALSVHLL	-0.202
HMVMTTVPEVLGMDIRTAASMLTGKNLKYDYDLVESDKPKDEVIEQDQAKGTEVPEGTVVKLKVSKGPA	0.143
HMVMTTVPEVLGMDISKAASLLTGKNLDYDYDLVESDKPKDQVIEQDVVKGTEVPEGTVIHLKVSKGPA	0.258
HMVMVVDVLKALSNNSSDKFFNTSISNAIKAQEDSQEDFVTLFGIEYEKLSPNNGLAVIFTSQ	0.865
HMVNDDTIAATEAEILALLADKHRHHITELNSIRRPYEQIDAALSSLINEEKIFQEDGMLFV	0.543
HMVNGEFIDRIKVILQENNATRKKDRLTKTRMYQLLQEEGYEGSYSAFTYQVRIIEEELGINNK	-2.31
HMVNSIQIHKKLRLDKRAGSDNWYARLTLPNGKRLVKTTKTEDIETAKEVALRLYYEVDARIQNKLPAT	-1.72
HMVPADVQHLRDIVDTMTEKQQLVYKLHVLEGYTFTEIAKLMGTSIPNVKKHYDKAILFIKNNF	-1.79
HMVPEEEATKISVQNVGASDYNFTVKGVQANDPTLTLVRGKTYEFDVTSLGHPFWIKTQKVTGSSSQY	0.354
HMVPLSPRFFDIFRKRKDLTRQNVDVYFRDHPTEITAFERYIKGLVSQSYIPAERADALLLVASQYKAK	-1.58
HMVPSTAVIFTELVSMRSEPATKSPVTHQLTKGTAITINEEKDGWYQVTDQTGNSGWIVKWAVKPTYFTNP	-0.967
HMVPTYEAYVGKEGLVVGTLRPAGTAEFDGERLDVVSEGEYLEAGTRVQIVRTEGRRIVVRKIN	-0.275
HMVPVVGTTIPHEFIGKFGSARVMLKPAVEGSGVIAGGSARAVLELAGYKDIKTKVLGTNNPRNVVYATMN	0.238
HMVQDDDPNSVAKFIDQVIESNPEQVEQYRSGKEKVFNFFLGQTMRLSKGKANPDLVSELLKEKLS	0.0209
HMVQIQDIAFSEFLNELEKGNILDVNIKGDLINGNMLDGKKFKTYAPYDPSLVEKLSKQNVTINVEPVN	0.109
HMVQMKIRAYELEPNDFFIKQNMTYRVMRIQNGMIYAKHLLNSTPITFGAKSMEFVLWTGKYS	-2.21
HMVQQTEEDVIRDMYVEGKIFTIGEEVTDTYTGVTGKIIRRGTNYVTFMSEDGETYKKWLYEIELA	-0.61
HMVRDGDTFVVPKMDRFARNVEDTLHLVRELTERGVIFQMGHTVYDPHDPWSKLFLTFLAAIAEA	0.0785
HMVREVGYNAFLAMLDSGAVKEVARDESEGQITFLATDEKGKERVYKTGIWPDDTLTERLNTAGVEFA	0.351
HMVREVSYDQFLHFVEAKQVGMVYQDGESLMFTLKEDVEKEWGVTAYKTGLWPDANLTDRLLDAGVVFS	-2.32
HMVRGNLAEELLKLREEEGISFQEAGARSGIARSTISQVVNQGLRLKPNQEESLWRVIEEVRGVKER	0.0321

Sequence	soluble fraction (log2)
HMVRSEDLIGLQGRITLATDVETRGFVELSVKGSLLRRPALSLKGPLAKNTAVVVTASNDHTLEVEAL	-0.985
HMVRSKLEIVPVPEDAVVKIAGLKRLTYQAYQNEDVPYMVYKNGYEAQSGTVFMDTDKTLTVTLEESP	-0.0399
HMVSAMLLHKKEILNLLAEEPEALHFASLLRAFGGRHIKNELKQIVDDLVRSGEILRLRGNRYTLPGADN	-1.5
HMVSATKAFVNGGNIVVSSPKATRVAVYNVAGQKVAEQAFAGKATIKASDFAKGIYVLKFNDNTVLKLT	-0.955
HMVSDAELTSQATTAITAYPGTSVEVKEGQAHLSGTFATEADKQAAIDALKKIQDVKDVHDMATV	0.152
HMVSDSAELSAFVADVIKENAQAVADYKGGKTNVFGWLMGQIIKKSGGKATPAAAAALLKAELEK	-0.0308
HMVSKQVTVNGIQYYQYTVQKSEGFYAISTKFGVTQDDIILANPSTKEGLRVGQEILIPIKT	-2.62
HMVSLLDWAYKQVRRMLFSGDLPQGQKIVVAQLANQLSISPTPVKEALNRLAVEGLLEAVPRRGFQVR	-0.548
HMVSQELIMLGNRIREYRKERGFSQEILAEKSGVSTNTISRIEGGQMAMSVGILQRIVKALGVDANVMLG	-2.32
HMVSQKPKERELWFREQLELAGLRLDPHAISAINETLGNDTGRFPGIIDTLLSTYGAGKKLSYDDVVMFL	-0.638
HMVSRAFEEETVKRAESGNQEAALFALELAIREIEHSYEKSKIIDYFVSKVRLFLDNGVSLERALGIH	0.196
HMVSRKIENPYWANKEKQHIIAEFFYPDTNKRVTASIMNDGSNRDYEEILRGYSIEQIDANTNRRLEER	0.566
HMVSSEGLASGIERMLVEFGLETDKGRRFAMWSLLYMLGSAPDLDVAFKDPRDREAARTFMDLLDQANA	-1.57
HMVSSVAAISQMIDEKDRYTSEHSHRVAEYARLIGAHMGFAGEELDSLYRSALLHDIGKIAVPDAILNK	-0.627
HMVSTDPVHLFNLGTANRRAGRASEAITSYRKFMEAAPQHPQVPEARAYIHDMEVLLQERQKSEQAASQLS	0.143
HMVSTSVTVTGDLNVRADSRADSDLVGALIPGQTVTRLAVLDNGWSKIRFDDGAGTVVEGYVLSEYLQADG	0.335
HMVSVEINTVERDETFRKMFTSGWKPENRIQALAVEQAKKNGLGRMSEVAGLASFRGIWKQATEQVALEA	-0.213
HMVSVLDHIVGIGAKRRQSLWNHFGTIDKIKAASIDELLKAPGMNRPSAEAVYYFFEAQRQLRGK	-1.22
HMVTEKNALTIEIEDLTKRFGNQRESLLPILQEVQLKHGHISDFAQQEIARLLDIHPVEVYGVVTFFSFLS	-3
HMVTGSIYERKGIYYAIVSYYVDGRRKQKSVSTGLSVKGNKRRALEFLENLKRTYETKESMENMD	-3.79
HMVTIEEMMDRLLTRVQRAVNMSFSEFSGEAKEKVEVIVSFLALLELVKQGAVDVLQHENFSDIRIENT	-0.661
HMVTKQKKLVLTIIERSHGHLSAEEIFFRAREEMPNIALGTVYRNLNSLTEEGIVRRITLPGTSDRFDT	-2.91
HMVTKTTYAYERLKREIMDGTLGQGEKLVVNAISQRYQVSPMPIREALLKLEQEGLVQSAPHRGAWVHK	-0.776
HMVTNELFGTRLRAFRKEKGLTIEQLAERVGLSPNYLGDIERGKKLPSMATFIRLVNELDISADEL	-1.52
HMVTQVDYGTFLTRIDEGKVKSVEIQDNQIAFTAIDEAGKENIYVTGKVNDPELVDRLLAADIEDFSQVIP	0.0911
HMVTTTEAAKMLLVNAGHDVIKDGLTGASWASNTMKLADADGLLASVATKPNDALPRQYAAQMIYN	0.103

Sequence	soluble fraction (log2)
HMVVANTAIKSELQNIVANENKQAPLSDQKIVDQLKQAGFDISRRTVVKYRDALGIPTSRNRKR	-0.28
HMVVEGMQFDRGYLSQYMVTDNEKMVADLENPYILITDKKISNIQEILPLLESILQSSRPLLIIADD	-0.0369
HMVVGYRYVTNVANAVNFRQKPSASSTIITTIPYGTRIGYVEDANSEYARVKYDNMYGYVAKFYLSNYSPP	-3.68
HMVVLNQEQIKFIDHYLQVSKVRYVDVRSELTDHIATAVELKMQDEALDFYEAFKAFIAVNKSQLLQRN	-1.06
HMVVNERIKKLRRSLDLTQQEFADRIGVKRNTIANYEIGRNEPIDSVLELIVREFGVSKQWLLDGTGEMF	-1.43
HMVVPRSFKYEVLAHGGWAGNAQRYQTKEEALHAGLALSRRWTAVEDYRAVPSDDLPNQPAL	-0.231
HMVVPSNPDELKGSFSLAEVASGYGLEVAAILEKAGWPADTDPNVKMRDAANAIGRDSTDIRNAVKALLKS	0.156
HMVVVPPPATPKPGDVTGDNKINGYDLSILLSNWKRPGATLAQGDLNKDGVVNGLDLSIMLLNWG	0.274
HMVVYDAELLLNINPGMSYEEVKEMLGDPGMIIAGNDAENSVYRWSTGGISFMGRFENGALIRKSIISP	-0.862
HMVWNVEQIKRAVDQLPDGYRVVFTLYLFEGYDHREIADILGISEGGSKSQFNRAKSKLKEILTAMS	-2.19
HMVWTAGEVVERIRERVGHPATIRELMQVLTIPPEDRHRFRRRIMQLVEAGELIRIRGNRYGLAD	-2.59
HMVYNGYYAKSFNGYVVILNGDEKTVYEYTQIPIHLLPEDIRSSVMSGYYLENETDLYNFLENYS	-3.24
HMWAVDFVLLDKDDQRIGNAVAYRDDRTKGMDEEVYRTVPEEELYASTGIQKQIFNSIYQLMAWKK	-0.0106
HMWDRFGELDSAEEINRIAAAELREGDIDALKVLAEENGLDKDDVEDYIDRLIDELTTPELAAIGKLDV	0.275
HMWKQISSEAELLPAVRSVIQANPGEAEKLRNGEMAPLEFLTGLVMKKTNGMAVPQIVKTLIKKELKI	0.0414
HMWKSEAGKKIIESLAQKYNKSNAQIILRWHIQMGYIVIPGARSENHIKENINIFDFKLTNEEINNILKLN	-0.242
HMWMTAQDFRNSSLPWSATTSYNEGQSVRVVDGSNTYYYIAIVKTQPGQSPTTHPTSWREVDA	-1.16
HMWNLPDPVVRPEGNVTVYENFKNTVEVLNREADLVLKFLQNEFGTSANIDDTGRARLTGSFSTDRVSSVI	-0.328
HMWSNTAVIDRIRQLHEEGQPISSQSVQVNHKSLYMAAIKRFRGWKRAVEAAGIDYRQIRLR	-2.29
HMWWTPIILRDALFGVQRFEDFQKNLDVSRATLSSRLTRLVDEGLMEKVEYQQHPVRHEYVLTEKGR	-0.234
HMYAGTWTTESGQWKYRQDDGTYAKGWLQDTDGRWYYFDANGRMLSNTATPDGYQVGEDGAWVNH	-0.338
HMYAMTAEDWIVSGNRKYINDDLQGAIADYTKAIEIDPNYAAIYLVRGKAKYELKNYQGAIEDYTKAIE	-1.29
HMYAPKIETIQVPQDKIREVIGTGGKVIREIVETTGAKIDIGDTGLIKVASSDGEAIRAALDWINSIVAE	0.278
HMYATQLLQLEEMGFFDRAENIRALRATNGNVNAAVERL	-0.202
HMYDASELNKALEEAKKLDLNNYTEESSEALKNAISKAEEALLSKDKETINSALEELNKAMDSL	0.512
